# Laboratory results from patent US20190309059A1 (SHANGHAI PHARMAEXPLORER, published 2019).
# Where “and” joins values, the source holds several entries; their conditions need not be identical. Equal entries are not always repeated.
# T1: mouse IL-13 (purchased from sino biological) (mouse, UniProt P20109 19-131)
# T1 chain: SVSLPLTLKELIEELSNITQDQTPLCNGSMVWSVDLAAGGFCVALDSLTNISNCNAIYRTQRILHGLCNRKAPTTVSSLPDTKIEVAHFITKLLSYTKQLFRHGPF
# How the values were obtained:
# [1] = target: his-labeled human IL-13 (immunogen A) (human) (UniProt P35225); test: ELISA, biotin-immunogen A; antibody at 0.001 nM
# [2] = target: his-labeled human IL-13R130Q variant (human) (UniProt P35225); test: ELISA, IL-13R130Q variant; antibody at 0.021 nM
# Chain of his-labeled human IL-13R130Q variant (human) (P35225 other isoform, or with tags, fused parts or gaps mutant): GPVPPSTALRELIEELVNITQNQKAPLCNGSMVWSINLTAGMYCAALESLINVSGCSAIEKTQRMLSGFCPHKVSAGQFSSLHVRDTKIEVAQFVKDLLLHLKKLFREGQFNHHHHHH
# [3] = target: his-labeled human IL-13R130Q variant (human) (UniProt P35225); test: ELISA, IL-13R130Q variant; antibody at 0.11 nM
# [4] = target: his-labeled human IL-13R130Q variant (human) (UniProt P35225); test: ELISA, IL-13R130Q variant; antibody at 13.33 nM
# [5] = target: his-labeled human IL-13R130Q variant (human) (UniProt P35225); test: ELISA, IL-13R130Q variant; antibody at 0.53 nM
# [6] = target: his-labeled human IL-13R130Q variant (human) (UniProt P35225); test: ELISA, IL-13R130Q variant; antibody at 0.004 nM
# [7] = target: cynomolgus IL-13 (purchased from sino biological) (cynomolgus) (UniProt Q0PW92); test: ELISA, cynomolgus IL-13; antibody at 66.7 nM
# Chain of cynomolgus IL-13 (purchased from sino biological) (cynomolgus) (Q0PW92 entry or part of it): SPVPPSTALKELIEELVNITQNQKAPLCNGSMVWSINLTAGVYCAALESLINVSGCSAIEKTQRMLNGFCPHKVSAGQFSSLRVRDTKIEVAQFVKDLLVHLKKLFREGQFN
# [8] = target: cynomolgus IL-13 (purchased from sino biological) (cynomolgus) (UniProt Q0PW92); test: ELISA, cynomolgus IL-13; antibody at 13.33 nM
# [9] = target: his-labeled human IL-13 (immunogen A) (human) (UniProt P35225); test: ELISA, biotin-immunogen A; antibody at 0.11 nM
# [10] = target: his-labeled human IL-13 (immunogen A) (human) (UniProt P35225); test: ELISA, biotin-immunogen A; antibody at 0.00 nM (8th dilution)
# [11] = target: his-labeled human IL-13 (immunogen A) (human) (UniProt P35225); test: ELISA, biotin-immunogen A; antibody at 0.53 nM
# [12] = target: his-labeled human IL-13 (immunogen A) (human) (UniProt P35225); test: ELISA, biotin-immunogen A; antibody at 0.000 nM
# [13] = target: his-labeled human IL-13 (immunogen A) (human) (UniProt P35225); test: ELISA, biotin-immunogen A; antibody at 0.00 nM (6th dilution)
# [14] = target: his-labeled human IL-13 (immunogen A) (human) (UniProt P35225); test: ELISA, biotin-immunogen A; antibody at 0.02 nM
# [15] = target: T1, mouse IL-13 (purchased from sino …); test: ELISA, mouse IL-13; antibody at 0.001 nM
# [16] = target: T1, mouse IL-13 (purchased from sino …); test: ELISA, mouse IL-13; antibody at 0.53 nM
# [17] = target: T1, mouse IL-13 (purchased from sino …); test: ELISA, mouse IL-13; antibody at 0.021 nM
# [18] = target: cynomolgus IL-13 (purchased from sino biological) (cynomolgus) (UniProt Q0PW92); test: ELISA, cynomolgus IL-13; antibody at 66.67 nM
# [19] = target: T1, mouse IL-13 (purchased from sino …); test: ELISA, mouse IL-13; antibody at 0.11 nM
# [20] = target: his-labeled human IL-13 (immunogen A) (human) (UniProt P35225); test: ELISA: biotin-labeled immunogen A on streptavidin plate, antibody titrated, HRP secondary antibody, OD450
# [21] = target: cynomolgus IL-13 (purchased from sino biological) (cynomolgus) (UniProt Q0PW92); test: ELISA: cynomolgus IL-13 on the plate, antibody titrated, HRP secondary antibody, OD450
# [22] = target: his-labeled human IL-13 (immunogen A) (human) (UniProt P35225); test: ELISA, biotin-immunogen A; antibody at 0.021 nM
# [23] = target: his-labeled human IL-13 (immunogen A) (human) (UniProt P35225); test: ELISA, biotin-immunogen A; antibody at 0.004 nM
# [24] = target: T1, mouse IL-13 (purchased from sino …); test: ELISA, mouse IL-13; antibody at 13.33 nM
# [25] = target: his-labeled human IL-13 (immunogen A) (human) (UniProt P35225); test: FACS blocking assay: antibody titrated with biotin-labeled immunogen A (30 ng/mL); blocked partner IL-13Ra1/IL-4Ra on HEK293 clone 4C1; Alexa 488 streptavidin
# [26] = target: T1, mouse IL-13 (purchased from sino …); test: ELISA, mouse IL-13; antibody at 2.67 nM
# [27] = target: his-labeled human IL-13 (immunogen A) (human) (UniProt P35225); test: ELISA, biotin-immunogen A; antibody at 13.33 nM
# [28] = target: his-labeled human IL-13 (immunogen A) (human) (UniProt P35225); test: SPR (Biacore), antibody captured by anti-human Fc, immunogen A as analyte
# [29] = target: cynomolgus IL-13 (purchased from sino biological) (cynomolgus) (UniProt Q0PW92); test: ELISA, cynomolgus IL-13; antibody at 333.3 nM
# [30] = target: his-labeled human IL-13R130Q variant (human) (UniProt P35225); test: ELISA: IL-13R130Q variant on the plate, antibody titrated, HRP secondary antibody, OD450
# [31] = target: his-labeled human IL-13R130Q variant (human) (UniProt P35225); test: ELISA, IL-13R130Q variant; antibody at 66.67 nM
# [32] = target: his-labeled human IL-13 (immunogen A) (human) (UniProt P35225); test: SPR (Biacore)
molecule,measurement,setting,value
IgG control (mouse IgG) (antibody),OD450 nm,[1],0.05
same,OD450 nm,[2],0.06
same,OD450 nm,[3],0.06
same,OD450 nm,[4],0.09
same,OD450 nm,[5],0.06
same,OD450 nm,[6],0.07
same,OD450 nm,[7],0.1
same,OD450 nm,[8],0.21
same,OD450 nm,[9],0.07 and 0.05
same,OD450 nm,[10],0.07
same,OD450 nm,[11],0.07 and 0.06
same,OD450 nm,[12],0.05
same,OD450 nm,[13],0.08
same,OD450 nm,[14],0.07
"29D9H8 (lead antibody, mouse hybridoma) (antibody, V domains shown, Mouse monoclonal antibody purified from hybridoma supernatant on Protein G) VH: QVQLQQSGAELVRPGASVTLSCKASGYTFTDYEMHWVKQTPVHGLEWIGGIDPETGGTASNQKFKGKAILTADKSSSTAYMELRSLTSEDSAVYYCTSGDYFGGGPFAYWGQGTLVTVSA VL: DIKMTQSPSSMYASLGERVTITCKASQDINSYLSWFQQKPGKSPKTLIYRANRLVDGVPSRFSGSGSGQDYSLTISSLDYEDMGIYYCLQYDEFPYTFGGGTKLEIK",OD450 nm,[1],0.07
same,OD450 nm,[15],0.07
same,OD450 nm,[16],0.06
same,OD450 nm,[8],2.46
same,OD450 nm,[17],0.06
same,OD450 nm,[18],2.52
same,OD450 nm,[19],0.07
same,EC50 (read off the curve),[20],0.1 nM
same,EC50 (read off the curve),[21],0.1 nM
same,OD450 nm,[9],0.85
same,OD450 nm,[22],0.34
same,OD450 nm,[23],0.12
same,OD450 nm,[24],0.09
same,OD450 nm,[11],1.4
same,OD450 nm,[12],0.06
same,IC50 (read off the curve),[25],0.3 nM
same,OD450 nm,[26],0.07
same,OD450 nm,[27],1.6
"28A2E11 (lead antibody, mouse hybridoma) (antibody, V domains shown, Mouse monoclonal antibody purified from hybridoma supernatant on Protein G) VH: EVQLQQSGAELVKPGASVKLSCTASGFNIKDYYMHWVKQRTEQGLEWIGRIDPEDGETKYAPKFHDKATLTADTSSNTAYLQFSSLASEDTAVYYCTRYDYYGPFAYWGQGTLVTVSA VL: QAVVTQESVLTTSPGETVTLTCRSSTGAVTTSNYANWVQEKPDHLFTGLIGGTNNRAPGVPARFSGSLIGDKAALTITGAQTEDEAIYFCALWYINHFIFGSGTKVTVL",OD450 nm,[1],0.07
same,OD450 nm,[15],0.06
same,OD450 nm,[16],0.07
same,OD450 nm,[8],1.78
same,OD450 nm,[17],0.08
same,OD450 nm,[18],1.99
same,OD450 nm,[19],0.07
same,EC50 (read off the curve),[20],0.2 nM
same,OD450 nm,[9],0.74
same,OD450 nm,[22],0.28
same,OD450 nm,[23],0.1
same,OD450 nm,[24],0.08
same,OD450 nm,[11],1.32
same,OD450 nm,[12],0.05
same,IC50 (read off the curve),[25],0.7 nM
same,OD450 nm,[26],0.08
same,OD450 nm,[27],1.74
"c29D9H8 (mouse-human chimeric IL-13 antibody) (antibody, V domains shown) VH: QVQLQQSGAELVRPGASVTLSCKASGYTFTDYEMHWVKQTPVHGLEWIGGIDPETGGTASNQKFKGKAILTADKSSSTAYMELRSLTSEDSAVYYCTSGDYFGGGPFAYWGQGTLVTVSA VL: DIKMTQSPSSMYASLGERVTITCKASQDINSYLSWFQQKPGKSPKTLIYRANRLVDGVPSRFSGSGSGQDYSLTISSLDYEDMGIYYCLQYDEFPYTFGGGTKLEIK",OD450 nm,[2],0.4
same,OD450 nm,[3],1.23
same,OD450 nm,[4],2.99
same,OD450 nm,[5],2.46
same,Kd,[28],0.0324 nM
same,koff,[28],0.000813 s⁻¹
same,kon,[28],2.51e+07 M⁻¹ s⁻¹
same,OD450 nm,[6],0.2
same,OD450 nm,[29],3.7
same,OD450 nm,[7],3.6
same,EC50 (read off the curve),[30],0.2 nM
same,EC50 (read off the curve),[21],0.2 nM
same,OD450 nm,[31],3.06
same,IC50 (read off the curve),[25],0.5 nM
same,Kd,[32],< 90 nM
"c28A2E11 (mouse-human chimeric IL-13 antibody) (antibody, V domains shown) VH: EVQLQQSGAELVKPGASVKLSCTASGFNIKDYYMHWVKQRTEQGLEWIGRIDPEDGETKYAPKFHDKATLTADTSSNTAYLQFSSLASEDTAVYYCTRYDYYGPFAYWGQGTLVTVSA VL: QAVVTQESVLTTSPGETVTLTCRSSTGAVTTSNYANWVQEKPDHLFTGLIGGTNNRAPGVPARFSGSLIGDKAALTITGAQTEDEAIYFCALWYINHFIFGSGTKVTVL",Kd,[28],7.98 nM
same,koff,[28],0.00438 s⁻¹
same,kon,[28],549000 M⁻¹ s⁻¹
same,OD450 nm,[29],3.9
same,OD450 nm,[7],3.4
same,EC50 (read off the curve),[30],0.3 nM
same,EC50 (read off the curve),[20],0.2 nM
same,OD450 nm,[9],0.83
same,OD450 nm,[10],0.06
same,OD450 nm,[11],1.93
same,OD450 nm,[13],0.1
same,OD450 nm,[14],0.25
same,IC50 (read off the curve),[25],1 nM
same,Kd,[32],< 90 nM
same,OD450 nm,[27],2.71
"c35E2C3 (mouse-human chimeric IL-13 antibody) (antibody, V domains shown) VH: EVQLQESGPGLAKPSQTLSLTCSVTGYSITSDYWNWIRKFPGNKLEYMGYISYNGNTYYNPSLKSQISITRDTSKNQLYLQLKSATTEDTATYYCARLAKWTWYFDIWGTGTTVTVSS VL: DIQMNQSPSSLSASLGDTITITCHASQNINVWLSWYQQKPGSLPKLLIYKASDLHTGVPSRFSGSGSGTGFTLTISSLQPEDIATYYCQQGQSYPYTFGGGTKLEIK",OD450 nm,[2],0.28
same,OD450 nm,[3],0.97
same,OD450 nm,[4],3.3
same,OD450 nm,[5],2.4
same,Kd,[28],0.863 nM
same,koff,[28],0.00026 s⁻¹
same,kon,[28],300000 M⁻¹ s⁻¹
same,OD450 nm,[6],0.13
same,OD450 nm,[7],3.8
same,EC50 (read off the curve),[30],0.3 nM
same,EC50 (read off the curve),[20],0.4 nM
same,OD450 nm,[9],0.59
same,OD450 nm,[10],0.06
same,OD450 nm,[11],1.63
same,OD450 nm,[31],3.4
same,OD450 nm,[13],0.09
same,OD450 nm,[14],0.18
same,IC50 (read off the curve),[25],0.5 nM
same,Kd,[32],< 90 nM
same,OD450 nm,[27],2.59
